Laboratory results taken from paper PMC7980781.

Biological target: T1, Purified 6xHis tagged recombinant FLCN, Q8NFG4
T1 chain: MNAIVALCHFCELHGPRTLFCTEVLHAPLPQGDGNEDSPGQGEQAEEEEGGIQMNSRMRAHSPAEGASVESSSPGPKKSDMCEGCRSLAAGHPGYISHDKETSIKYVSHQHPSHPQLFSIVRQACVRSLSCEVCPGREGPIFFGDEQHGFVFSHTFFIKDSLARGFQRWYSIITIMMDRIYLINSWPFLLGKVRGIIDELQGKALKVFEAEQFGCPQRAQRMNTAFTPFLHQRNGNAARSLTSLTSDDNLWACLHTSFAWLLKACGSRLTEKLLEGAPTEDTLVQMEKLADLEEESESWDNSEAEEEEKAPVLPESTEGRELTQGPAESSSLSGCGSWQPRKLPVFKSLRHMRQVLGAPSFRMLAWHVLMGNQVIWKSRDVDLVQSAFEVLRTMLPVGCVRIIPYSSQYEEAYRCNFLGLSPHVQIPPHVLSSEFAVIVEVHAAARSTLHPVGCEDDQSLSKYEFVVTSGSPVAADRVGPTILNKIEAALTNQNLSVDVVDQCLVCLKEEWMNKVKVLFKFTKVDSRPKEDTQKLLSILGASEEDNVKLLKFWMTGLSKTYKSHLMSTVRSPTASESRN
Test: native gel or EMSA
Conditions: remark: other sources report otherwise

stoichiometry N: 2
B1: Purified 6xHis tagged recombinant FLCN, Q8NFG4 1-579 (natural protein)
chain: T1 chain
